B1: α–caveolin-1 (natural protein)
chain: MSGGKYVDSEGHLYTVPIREQGNIYKPNNKAMAEEMSEKQVYDAHTKEIDLVNRDPKHLNDDVVKIDFEDVIAEPEGTHSFDGIWKASFTTFTVTKYWFYRLLSALFGIPMALIWGIYFAILSFLHIWAVVPCIKSFLIEIQCISRVYSIYVHTFCDPFFEAVGKIFSNIRINMQKET
B2: canine caveolin-2 (natural protein)
chain: MGLETEKADVQLCMDDDAYSRHSAVDFGDLEQLADSGSDRDPRRLNSHLQVGFEDVIAEPVSTHSFDKVWICSHALFEVSKYVIYKFLTLLLAMPMAFAAGVLFATLSCLHIWIIMPFVKTCLMVLPSVQTIWKSVTDAVIAPLCSSVGRSFSSVSLQVSHD
modifications: phosphorylated at steady state (sites not given)
B3: β–caveolin-1 (natural protein)
chain: MAEEMSEKQVYDAHTKEIDLVNRDPKHLNDDVVKIDFEDVIAEPEGTHSFDGIWKASFTTFTVTKYWFYRLLSALFGIPMALIWGIYFAILSFLHIWAVVPCIKSFLIEIQCISRVYSIYVHTFCDPFFEAVGKIFSNIRINMQKET

Key:
canine caveolin-2 = molecular target: B2; test: co-IP
α–caveolin-1 = molecular target: B1; test: co-IP

Binder	ratio in the immunoprecipitate (canine caveolin-2)	ratio in the immunoprecipitate (α–caveolin-1)
B1	~1 α–caveolin-1 per caveolin-2	
B2		~0.5 caveolin-2 per α–caveolin-1
B3	~1 β–caveolin-1 per caveolin-2	~1 β–caveolin-1 per α–caveolin-1
